In patent US20100022402A1, “Methods and Compositions for the In Vitro High-Throughput Detection of Protein/Protein Interactions” (priority 2004, published 2010):

How the values were obtained:
[1] = biological target: λD-CUE display phage (gpD fused to the CUE domain of Vps9p) (bacteriophage lambda) (UniProt P03712); test: competition: free protein titrates λD-CUE:λD-Ubiquitin co-infection (MOI 0.04), loss of double resistant multilysogens
[2] = biological target: λD-CUE display phage (gpD fused to the CUE domain of Vps9p) (bacteriophage lambda) (UniProt P03712); test: apparent KD from titration of λD-Cue:λD-Ubiquitin co-infection by free protein
[3] = biological target: λD-Ubiquitin display phage (gpD fused to Ubiquitin) (bacteriophage lambda) (UniProt P03712); test: as above
[4] = biological target: λD-Ubiquitin display phage (gpD fused to Ubiquitin) (bacteriophage lambda) (UniProt P03712); test: cell-based or functional assay
[5] = biological target: Lambda phage displaying SS1 scFv (DcSS1DL1), gpD-scFv-c-myc fusion protein (bacteriophage lambda) (UniProt P03712); test: phage ELISA on anti-c-myc-coated plates, reference DcDL1
[6] = biological target: DcDL1 lambda phage displaying gpD-c-myc fusion protein (bacteriophage lambda) (UniProt P03712); test: bio-panning in 9E10-coated wells, reference DL1 phage
[7] = biological target: DcDL1 lambda phage displaying gpD-c-myc fusion protein (bacteriophage lambda) (UniProt P03712); test: bio-panning of DcDL1 SCO and DCO phage in 9E10-coated wells

Chain of free wild type CUE protein (wtCUE, 50 amino acids) (P54787 402-451 limits assumed): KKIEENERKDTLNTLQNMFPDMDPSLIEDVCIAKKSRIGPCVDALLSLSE

free wild type Ubiquitin protein (wtUbiquitin)
IC50 [1]: 3 nM
Kd [2]: 20 nM

free wild type CUE protein (wtCUE, 50 amino acids) (from UniProt P54787 402-451)
Kd [3]: 2 nM

λD-CUE display phage (gpD fused to the CUE domain of Vps9p) (from UniProt P03712 1-110; P54787 402-451)
Cml^r/Kan^r double resistant lysogens at an MOI of 0.008 (8×10^5 phages infecting 1×10^8 cells) [4]: 150 lysogens
MOI at which double resistant multilysogens begin to contribute to the stable lysogen population [4]: 0.0001 MOI
MOI at which formation of double resistant multilysogens begins [4]: 0.03 MOI
maximum saturation point of double resistant multilysogens (% of the available cells) [4]: 25

Anti-c-myc mAb, 9E10 (antibody)
fold less binding than DcDL1 [5]: 30 times less
fold recovery over DL1 phage [6]: > 200 fold
recovery of phages (percent of phages added) [7]: 2%
